In article PMC7782793, “Hydroxamic acid-modified peptide microarrays for profiling isozyme-selective interactions and inhibition of histone deacetylases” (Nature Communications, 2021):
Starred links: 1 amine or outer side, 2 acyl side, 3 side chain; linkers in the order of their positions; H or OH if unused. Non-standard residues stand in square brackets, D forms with d. Primed or numbered codes have the meaning given here. No end group written: not given here. Asuha″ = L-2-amino-8-(hydroxyamino)-8-oxooctanoic acid, O=C(CCCCC[C@H](N[*:1])C(=O)[*:2])NO

Biological target: T1, HDAC6 (histone deacetylase 6) (human, UniProt Q9UBN7 1-1215)
T1 construct: HDAC6, human, full length; source: bought: BPS Bioscience, cat. #50056
T1 sequence (looked up): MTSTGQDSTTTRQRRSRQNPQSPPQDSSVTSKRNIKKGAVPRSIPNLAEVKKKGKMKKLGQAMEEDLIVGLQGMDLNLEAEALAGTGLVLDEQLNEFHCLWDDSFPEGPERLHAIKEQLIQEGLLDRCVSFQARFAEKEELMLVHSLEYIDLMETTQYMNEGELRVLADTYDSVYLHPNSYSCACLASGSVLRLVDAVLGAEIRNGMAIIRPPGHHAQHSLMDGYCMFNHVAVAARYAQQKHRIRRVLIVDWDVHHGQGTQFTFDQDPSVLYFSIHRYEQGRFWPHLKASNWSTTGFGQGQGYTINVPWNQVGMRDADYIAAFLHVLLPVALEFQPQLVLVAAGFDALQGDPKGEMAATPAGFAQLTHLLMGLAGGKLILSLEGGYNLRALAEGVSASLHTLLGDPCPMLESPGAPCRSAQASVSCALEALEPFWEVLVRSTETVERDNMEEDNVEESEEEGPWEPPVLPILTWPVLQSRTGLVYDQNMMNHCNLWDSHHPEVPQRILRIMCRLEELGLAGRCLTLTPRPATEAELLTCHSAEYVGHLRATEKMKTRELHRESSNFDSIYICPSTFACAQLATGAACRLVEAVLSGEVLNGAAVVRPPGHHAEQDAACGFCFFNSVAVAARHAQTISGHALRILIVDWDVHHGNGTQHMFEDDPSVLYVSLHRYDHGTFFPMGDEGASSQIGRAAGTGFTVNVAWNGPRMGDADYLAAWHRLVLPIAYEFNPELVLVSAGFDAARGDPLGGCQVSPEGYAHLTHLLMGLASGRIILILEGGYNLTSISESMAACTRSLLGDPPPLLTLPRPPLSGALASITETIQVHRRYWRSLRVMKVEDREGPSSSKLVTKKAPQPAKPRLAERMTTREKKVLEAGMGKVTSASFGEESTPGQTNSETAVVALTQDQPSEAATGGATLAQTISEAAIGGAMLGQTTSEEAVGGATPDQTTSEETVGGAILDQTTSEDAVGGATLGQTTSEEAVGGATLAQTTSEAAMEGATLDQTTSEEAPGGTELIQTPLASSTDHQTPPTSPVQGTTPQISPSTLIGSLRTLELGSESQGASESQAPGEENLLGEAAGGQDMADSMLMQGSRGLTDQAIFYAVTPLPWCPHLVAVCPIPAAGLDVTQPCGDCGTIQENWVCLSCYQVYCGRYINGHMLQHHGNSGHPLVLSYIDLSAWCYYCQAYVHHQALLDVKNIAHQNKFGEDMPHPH
Experiment: fluorogenic enzyme inhibition assay; peptide in 5-fold dilution series with enzyme and fluorogenic substrate (Ac-Leu-Gly-Lys(Ac)-AMC or Ac-Leu-Gly-Lys(Tfa)-AMC), HEPES buffer pH 7.4, 30 min, 37 °C, trypsin development; Ki by the Cheng-Prusoff equation
Details: both partners purified

B1: peptide 1a (parent H4K12 Asuha peptide) (peptide)
chain: KGGKGLG[Asuha″]GGAKRHR
For B1, which Ki is on record?
Its Ki is 5.31 ± 0.03 nM.
